Assay results taken from patent US20190270798A1 (CHILDREN S MEDICAL CENTER, published 2019).

Legend:
mouse LRRC33 = biological target: T1, mouse LRRC33 (mouse, UniProt Q8BMT4 20-693, limits assumed); experiment: immunoprecipitation from 293T transfectant lysates, blot
T1 construct: also called mouse LRRC33 complexes
T1 sequence (looked up): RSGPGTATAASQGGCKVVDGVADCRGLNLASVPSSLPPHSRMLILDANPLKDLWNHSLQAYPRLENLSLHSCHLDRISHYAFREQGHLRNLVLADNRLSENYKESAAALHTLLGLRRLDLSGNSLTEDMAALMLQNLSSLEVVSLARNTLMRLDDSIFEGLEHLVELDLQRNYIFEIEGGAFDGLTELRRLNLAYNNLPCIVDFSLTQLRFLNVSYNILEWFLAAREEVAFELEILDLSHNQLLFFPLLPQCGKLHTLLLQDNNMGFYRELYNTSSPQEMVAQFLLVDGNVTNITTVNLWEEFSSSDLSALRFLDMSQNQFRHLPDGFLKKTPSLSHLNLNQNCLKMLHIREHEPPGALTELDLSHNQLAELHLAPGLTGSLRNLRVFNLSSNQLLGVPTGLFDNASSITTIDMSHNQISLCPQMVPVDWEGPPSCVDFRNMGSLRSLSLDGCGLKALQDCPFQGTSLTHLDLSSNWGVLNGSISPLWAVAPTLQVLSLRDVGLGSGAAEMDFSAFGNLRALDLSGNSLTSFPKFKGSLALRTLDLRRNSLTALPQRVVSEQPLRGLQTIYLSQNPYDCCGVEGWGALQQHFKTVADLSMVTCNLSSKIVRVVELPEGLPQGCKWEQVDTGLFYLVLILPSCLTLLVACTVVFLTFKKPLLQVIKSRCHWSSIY

[1] = biological target: T2, human Glycoprotein A Repetitions Predominant (GARP) (human, UniProt Q14392 20-662); experiment: immunoprecipitation from L1.2 transfectant lysates, blot
T2 construct: whole, on cells; tested in cell lysates; also called LRRC32; FLAG-tagged GARP
T2 sequence (looked up): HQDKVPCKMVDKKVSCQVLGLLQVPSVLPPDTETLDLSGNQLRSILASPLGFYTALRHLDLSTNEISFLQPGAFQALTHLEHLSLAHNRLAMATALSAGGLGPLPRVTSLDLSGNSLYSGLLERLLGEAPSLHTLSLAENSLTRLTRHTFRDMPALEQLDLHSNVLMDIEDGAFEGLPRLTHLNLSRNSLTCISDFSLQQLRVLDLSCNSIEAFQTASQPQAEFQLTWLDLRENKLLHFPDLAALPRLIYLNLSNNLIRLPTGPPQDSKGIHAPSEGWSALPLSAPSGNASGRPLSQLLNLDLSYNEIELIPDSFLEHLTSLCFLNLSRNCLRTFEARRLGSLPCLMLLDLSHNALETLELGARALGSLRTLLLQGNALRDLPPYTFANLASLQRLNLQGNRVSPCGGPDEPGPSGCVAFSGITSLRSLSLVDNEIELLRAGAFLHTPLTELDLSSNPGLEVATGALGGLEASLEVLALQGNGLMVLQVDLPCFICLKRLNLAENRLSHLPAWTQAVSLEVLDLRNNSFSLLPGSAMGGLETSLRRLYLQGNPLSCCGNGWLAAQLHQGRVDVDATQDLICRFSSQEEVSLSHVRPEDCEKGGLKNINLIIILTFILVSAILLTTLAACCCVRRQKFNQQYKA
Description: Cell surface expression of FLAG-LRRC33, FLAG-33-32-X1, and FLAG-33-32-X5 were measured using FACS. Numbers show the MFI (mean fluorescence intensity). (B, C) The specificity of anti-LRRC33 antibody.
Anti-LRRC33 mAb was generated by immunizing Lac33^{-/-} mice with L1.2 cells that stably express the 33-32-X1 chimera on the cell surface. Hybridoma supernatants were screened by immunofluorescence flow cytometry (FACS) and an LRRC33 positive hybridoma was identified. This anti-LRRC33 mAb only recognizes human LRRC33, not GARP, in L1.2 transfectants by immunoprecipitates (IP) (FIG. 8B, line 2, 3).
After 48 hours of transfection, cells were collected and lysed in IP lysis buffer (50 mM Tris pH7.4, 150 mM NaCl, 2 mM EDTA, 1% NP-40), which was supplemented with a protease inhibitor cocktail (Roche) and subjected to western blot analysis or were used for immunoprecipitation with the indicated antibody. Performed as described previously {Wang et al, 2012}. L1.2 cells were transfected with indicated plasmid using electroporation. […]

B1: anti-LRRC33 monoclonal antibody (mAb) (antibody, V domains shown)
VH: EFQLQQSGPELVKPGASVKMSCKASGYSFTDSYMDWVKQSNGKTLEWIGLINPKYGTTTYNQKFKGKATLTVDQSSSTAYMQLNSLTSEDSAVYFCASLYYDYSAWFAYWGQGTLVTVSA
VL: QAVVTQESALTTSPGETVTLTCRSSTGAVTTSNYANWVQEKPDHLFTGLIGGTNNRAPGVPARFSGSLIGDKAALIITGAQTEDEAIYFCGLWFSNRWVFGGGTKLTVV
notes: Mouse hybridoma mAb raised in Lrrc33-/- mice against L1.2 cells expressing the 33-32-X1 chimera; also called anti-LRRC33 mAb; anti-LRRC33 antibody
B1: no binding (mouse LRRC33); no binding [1].
